Assays:
MHC class I molecule K^b = target: T1, MHC class I molecule K^b (Mus musculus, UniProt P01901); test: […]:K^b complexes on primary epidermal Langerhans cells in vitro (mAb 25-D1.16 flow cytometry); format: cell-based, C57BL/6 mice; conditions: 1.5 hrs
T1 construct: endogenous in cells; host or cells: primary epidermal Langerhans cells from C57BL/6 dorsal ear skin explants
T1 sequence (P01901 22-369): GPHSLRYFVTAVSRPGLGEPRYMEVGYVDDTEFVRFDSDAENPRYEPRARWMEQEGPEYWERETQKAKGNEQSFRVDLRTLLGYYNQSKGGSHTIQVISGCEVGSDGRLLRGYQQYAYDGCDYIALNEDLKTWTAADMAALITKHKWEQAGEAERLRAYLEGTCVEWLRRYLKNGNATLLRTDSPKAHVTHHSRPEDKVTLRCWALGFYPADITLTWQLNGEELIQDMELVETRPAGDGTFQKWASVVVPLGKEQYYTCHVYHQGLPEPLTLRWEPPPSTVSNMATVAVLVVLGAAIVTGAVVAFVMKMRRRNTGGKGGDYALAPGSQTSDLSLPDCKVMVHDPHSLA
T1 sequence (P01887 21-119 partner): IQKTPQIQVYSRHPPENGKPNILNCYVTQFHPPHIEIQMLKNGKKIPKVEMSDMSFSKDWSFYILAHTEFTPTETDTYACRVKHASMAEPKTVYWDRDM
From the text: To evaluate the immunogenic potential of various vaccine formulations and delivery methods, an antigen system that permits quantitative determination of the number of specific peptide:MHC complexes expressed on the cell membrane was used. To date, the only direct way to quantitate antigenic epitopes expressed on living cells and recognized by T cells is with the use of monoclonal antibodies (mAbs) specific for individual peptide:MHC complexes. Chicken ovalbumin (OVA) is a 40 kDa protein that has been used for many years as a prototypic experimental antigen for immunologic studies. The OVA257-264 peptide, […] (963 Da), is processed and presented in the peptide-binding groove of the MHC class I molecule K^b. The mAb, 25-D1.16, has specificity for the […]:K^b complex (Porgador et al. 1997 Immunity 6:715–726).
Primary epidermal Langerhans cells were obtained from cultured explants of C57BL/6 dorsal ear skin according to the method of Ortner et al. (Ortner et al. 1996 J. Immunol. Meth. 193:71). Over a period of 72 hrs in culture, Langerhans cells mature and migrate out of the explant, dropping onto the bottom of the culture dish. These cells were harvested and incubated for 1.5 hrs at 37° C. with various concentrations of synthetic […] peptide. The cells were then washed and stained with a FITC-conjugated anti-MHC class II (I-A^b) mAb, as well as with affinity purified and biotinylated 25-D1.16 followed by PE-avidin, and analyzed on a FACScan® flow cytometer. Non-specific binding of immunoglobulin proteins was blocked by pre-incubation and staining of the cells in a mixture of isotype control mAbs (rat IgG2a, rat IgG2b, mouse IgG1 and mouse IgG2a, each at 100–200 μg/ml) and the anti-Fc receptor mAb 2.4G2. Langerhans cells were identified by their characteristic light scatter properties (high forward, moderate side scatter) and exceptionally high levels of MHC class II expression, with the latter used to optimize the light scatter gate for each experiment. Dead cells were excluded from analysis by their uptake of 7AAD (7-amino-actinomycin D).
Each data point represents the mean and S.E. of 3 to 5 independent experiments. […]
(§1) As stated previously, whether mature antigen-bearing dendritic cells will be encountered by and activate naive T cells in the lymph node is likely to depend not only on the number of antigen-bearing dendritic cells that enter the node, but also on the density of MHC:peptide complexes expressed on their membranes. To estimate the density of peptide:MHC complexes on the immigrant dendritic cells generated by this procedure, we compared the fluorescence intensity of various cell populations detected by the peptide:MHC-specific mAb, 25-D1.16, using identical staining conditions and flow cytometer settings. The results are shown in Table IV, providing the number of specific peptide:MHC complexes expressed on the plasma membrane of dendritic cells after various treatments in vitro or in vivo.

E.G7-OVA cells = test: K^b:[…] complexes on E.G7-OVA cells (mAb 25-D1.16 fluorescence standard); format: cell-based, C57BL/6; conditions: endogenous SIINFEKL
From the text: as §1
The tumor cell, E.G7-OVA, is the C57BL/6 EL4 thymoma transfected with the complete gene for chicken ovalbumin (OVA). […] The number of those complexes expressed per cell has been measured independently by two different laboratories and reported to be 88 (Rotzschke et al. 1991 Eur. J. Immunol. 21:2891–2894) and 90 (Malarkannan et al. 1995 J. Exp. Med. 182:1739–1750). Therefore, the fluorescence intensity of E.G7-OVA could be used as a standard by which to estimate the number of K^b:[…] complexes expressed on the dendritic cell populations identified in the present study. […]

[1] = test system: dendritic cells in draining lymph node; test: Antigen-bearing dendritic cells in lymph node after aqueous antigen applied to skin with DBP and acetone; format: in vivo; conditions: aqueous solution applied to the skin with topical DBP and acetone (data not shown)
From the text: Similarly, when an aqueous solution of a […] peptide or OVA protein antigen was applied to the skin along with topical application of the migration inducer, DBP and acetone, no detectable antigen-bearing (i.e., K^b:[…] positive) dendritic cells appeared in the draining lymph node (data not shown).

- Median No. of Complexes/Cell (MHC class I molecule K^b; 0.1 nM SIINFEKL in vitro): 240 complexes/cell
- Median Specific Fl. Intensity (MHC class I molecule K^b; 0.1 nM SIINFEKL in vitro): 12
- Median No. of Complexes/Cell (MHC class I molecule K^b; 1.0 nM SIINFEKL in vitro): 1,600 complexes/cell
- Median Specific Fl. Intensity (MHC class I molecule K^b; 1.0 nM SIINFEKL in vitro): 80
- Median No. of Complexes/Cell (MHC class I molecule K^b; 10 nM SIINFEKL in vitro): 4,180 complexes/cell
- Median Specific Fl. Intensity (MHC class I molecule K^b; 10 nM SIINFEKL in vitro): 209
- Median No. of Complexes/Cell (MHC class I molecule K^b; 100 nM SIINFEKL in vitro): 11,160 complexes/cell
- Median Specific Fl. Intensity (MHC class I molecule K^b; 100 nM SIINFEKL in vitro): 558
- Median No. of Complexes/Cell (MHC class I molecule K^b; 1 μM SIINFEKL in vitro): 15,200 complexes/cell
- Median Specific Fl. Intensity (MHC class I molecule K^b; 1 μM SIINFEKL in vitro): 760
Sequence: SIINFEKL [eight amino acid peptide OVA257-264 of chicken ovalbumin, tumor-associated peptide antigen presented by K^b]
- Median Specific Fl. Intensity (E.G7-OVA cells): 4.5
- antigen-bearing (K^b:SIINFEKL positive) dendritic cells in the draining lymph node [1]: no detectable

Reference: patent US7229621B2, “Method to enhance the immunogenicity of an antigen” (Torrey Pines Institute for Molecular Studies, priority 1998, dated 2007)
